The Km is the concentration of substrate that gives half-maximal velocity. By Vmax is commonly meant the rate approached at saturating substrate. A word on the kcat: it is the number of substrate molecules converted per active site and unit of time at saturation. As a reminder, the kcat/Km is the turnover number divided by the Michaelis constant.

This is an account of results in article PMC3154929, “Phosphatase-Coupled Universal Kinase Assay and Kinetics for First-Order-Rate Coupling Reaction” (PLoS ONE, 2011).

Substrate in data set [1]: Nc1ncnc2c1ncn2[C@@H]1O[C@H](COP(=O)(O)OP(=O)(O)OP(=O)(O)O)[C@@H](O)[C@H]1O
Briefly: malachite green phosphate release assay. The format is biochemical, Mus musculus. Conditions: 25 mM Tris, 150 mM NaCl, 10 mM MgCl2, 10 mM CaCl2, pH 7.5, room temperature. An excerpt:
(§1) malachite green phosphate release assay on CD39L2 (ENTPD6)

Substrate in data set [2]: Nc1ncnc2c1ncn2[C@@H]1O[C@H](COP(=O)(O)OP(=O)(O)O)[C@@H](O)[C@H]1O
The experiment in a line: malachite green phosphate release assay. It counts as biochemical, Mus musculus. The note with it: 25 mM Tris, 150 mM NaCl, 10 mM MgCl2, 10 mM CaCl2, pH 7.5, room temperature.
From the text: as §1

Substrate in the data set “purified protein”: Nc1ncnc2c1ncn2[C@@H]1O[C@H](COP(=O)(O)OP(=O)(O)OP(=O)(O)O)[C@@H](O)[C@H]1O
Briefly: purified protein. The format is biochemical, Homo sapiens. Conditions: 20 mM glucose, 10 mM MgCl2, 10 mM CaCl2, 150 mM NaCl, 25 mM Tris pH 7.5, room temperature.

B1: CD39L2 (ENTPD6) (Mus musculus) (protein)
chain: MRKIPNHGTLRMTKVAYPLGLCVGLFIYVAYIKWHRASAAQAFFTIAGAASGARWTQQAFSSPGSAARGHEVFYGIMFDAGSTGTRIHVFQFARPPGETPTLTHETFKALKPGLSAYADDVEKSAQGIQELLNVAKQHIPYDFWKATPLVLKATAGLRLLPGEKAQKLLQKVKEVFKASPFLVGDDCVSIMNGTDEGVSAWITVNFLTGSLKTPGSSSVGMLDLGGGSTQITFLPRVEGTLQASPPGHLTALQMFNRTYKLYSYSYLGLGLMSARLAILGGVEGKPAENDKELVSPCLSPRFRGEWEHAEVTYRISGQKAVGLYELCASRVSEVLRNKVHRTEEAQHVDFYAFSYYYDLAASFGLIDAEKGGSLVVGDFEIAAKYVCRTLETQPPSSPFACMDLTYISLLLHEFGFPGDKVLKLARKIDNVETSWALGAIFHYIDSLKRQKVPAL
notes: recombinant, R&D Systems
Regarding B1, in data set [1], the Km is listed as 1.14 mM, the maximum rate (Vmax) is 0.928 µmol/min/mg, the kcat amounted to 0.617 s⁻¹ and the specificity constant (kcat/Km) was 727 M⁻¹ s⁻¹. In data set [2], the Km worked out at 1.05 mM, the maximum rate (Vmax) came out at 49.1 µmol/min/mg, the kcat was 38.5 s⁻¹ and the kcat/Km was 36600 M⁻¹ s⁻¹.

B2: human glucokinase (GCK) (Homo sapiens) (protein)
chain: VEQILAEFQLQEEDLKKVMRRMQKEMDRGLRLETHEEASVKMLPTYVRSTPEGSEVGDFLSLDLGGTNFRVMLVKVGEGEEGQWSVKTKHQMYSIPEDAMTGTAEMLFDYISECISDFLDKHQMKHKKLPLGFTFSFPVRHEDIDKGILLNWTKGFKASGAEGNNVVGLLRDAIKRRGDFEMDVVAMVNDTVATMISCYYEDHQCEVGMIVGTGCNACYMEEMQNVELVEGDEGRMCVNTEWGAFGDSGELDEFLLEYDRLVDESSANPGQQLYEKLIGGKYMGELVRLVLLRLVDENLLFHGEASEQLRTRGAFETRFVSQVESDTGDRKQIYNILSTLGLRPSTTDCDIVRRACESVSTRAAHMCSAGLAGVINRMRESRSEDVMRITVGVDGSVYKLHPSFKERFHASVRRLTPSCEITFIESEEGSGRGAALVSAVACKKACMLGQ
notes: V16 to Q465, N-terminal 6xHis tag, expressed in E. coli
With B2, the Michaelis-Menten constant (Km) in the data set “purified protein” is 3.55 mM.
